“Also recorded” adds a separate entry of the source. No end group written: not given here.
Experiments:
LGR7 (RXFP1) [1] = biological target: T1, LGR7 (RXFP1) (Homo sapiens, UniProt Q9HBX9); test: Competition with Europium labelled H2 Relaxin binding to HEK-293T cells expressing LGR7; set-up: expressed in transfected cells; settings: LGR7 HEK-293T; 0.01 nM-10 μM; FIG. 9
T1 sequence (Q9HBX9 1-757): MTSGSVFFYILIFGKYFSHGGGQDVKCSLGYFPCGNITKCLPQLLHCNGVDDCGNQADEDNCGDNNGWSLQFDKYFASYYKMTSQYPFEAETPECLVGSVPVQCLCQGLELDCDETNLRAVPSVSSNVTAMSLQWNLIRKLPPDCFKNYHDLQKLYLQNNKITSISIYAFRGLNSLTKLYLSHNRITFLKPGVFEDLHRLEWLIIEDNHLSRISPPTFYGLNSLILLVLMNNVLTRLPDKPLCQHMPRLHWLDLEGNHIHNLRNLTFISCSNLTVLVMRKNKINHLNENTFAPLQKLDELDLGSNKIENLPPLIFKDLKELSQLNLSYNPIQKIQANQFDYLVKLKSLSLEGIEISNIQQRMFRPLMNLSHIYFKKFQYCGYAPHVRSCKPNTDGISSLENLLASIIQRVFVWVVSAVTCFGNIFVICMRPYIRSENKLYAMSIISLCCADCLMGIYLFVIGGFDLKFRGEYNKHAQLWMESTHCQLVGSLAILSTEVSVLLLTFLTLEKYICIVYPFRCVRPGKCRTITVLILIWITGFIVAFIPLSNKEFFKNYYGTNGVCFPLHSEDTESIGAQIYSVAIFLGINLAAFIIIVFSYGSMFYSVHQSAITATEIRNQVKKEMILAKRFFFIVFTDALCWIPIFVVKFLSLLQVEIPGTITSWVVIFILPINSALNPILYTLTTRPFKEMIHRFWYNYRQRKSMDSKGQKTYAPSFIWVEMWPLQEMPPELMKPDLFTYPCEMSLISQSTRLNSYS
Procedure: The ability of Peptides P74C13V (SEQ ID NO: 10) and P59C13V (SEQ ID NO: 6) to compete with the binding of known ligands to LGR7 or LGR8 was tested by testing the ability of P74C13V (SEQ ID NO: 10) and P59C13V (SEQ ID NO: 6) to compete with the binding of Europium labelled H2 Relaxin or INSL3 (manufactured by the H. Florey institute) to stable HEK-293T cell lines expressing LGR7 or LGR8 respectively.
HEK-293T cell lines stabelly expressing LGR7 (RXFP1) were treated with Europium labelled H2 Relaxin (manufactured by the H. Florey institute) The cells were then treated with decimal increasing concentrations (0.01 nM, 0.1 nM, 1 nM, 10 nM, 100 nM, 1 μM, 10 μM) of un-labeled H2 Relaxin (as a positive control) and the tested peptides P59C13V (P59) (SEQ ID NO: 6), P59C13V-Amide (P59-Amide) (SEQ ID NO: 5), P59-S-Amide (P59S) (SEQ ID NO: 1) and P74C13V (P74) (SEQ ID NO: 10). The binding results are shown as a percentage of specific binding of the radioactive test H2 Relaxin (where 100% is the baseline radiation level).

LGR7 (RXFP1) [2] = biological target: T1, LGR7 (RXFP1); test: ACEA RT-CES cell impedance, LGR7 transfected CHO-K1 cells; assay type: cell-based; set-up: expressed in transfected cells; host or cells: CHO-K1 (transient); settings: for effect on cell impedance (normalized cell index): P74C13V 10 uM, H2 Relaxin 1 uM, FIG. 13; for dose response of normalized cell index: end point of the experiment, FIG. 16-19; for affinity to LGR7 compared with other ligands: from cell impedance dose response
Text: ACEA RT-CES screen is a noninvasive and label-free assay for GPCRs that can be used with both engineered and nonengineered cell lines. The assay is based on using cell-electrode impedance to measure minute changes in cellular morphology as a result of ligand-dependent GPCR activation and is described in Naichen Yu, et al., Anal. Chem., 78 (1), 35-43, 2006. 10.1021/ac051695v S0003-2700(05)01695-1. The Rho family of small GTPases, which include Rho, Rac, and CDC42, are well-characterized effectors of oncogenes, growth factor and adhesion-mediated signaling pathways and are not classically thought of as being key effectors for GPCRs. Rho family GTPases participate in a number of cellular processes, the main one being regulation and maintenance of specific structures within the actin cytoskeleton framework. […] The current view of the actin cytoskeleton is that of a dynamic and plastic system that is a reflection and manifestation of the intracellular signaling and not simply a static structure designed to maintain cellular architecture. Since GPCRs couple to the actin cytoskeletal network and induce very defined morphological changes, it is possible to harness this information as a functional and biologically relevant readout for GPCRs.
ACEA biosciences; has designed electronic cell sensor arrays embedded in the bottom of the well of microtiter plates that are capable of measuring minute changes in cell morphology. The electronic sensors measure changes in cell-substrate impedance as a result of the disruption of the ionic environment due to the presence of cell and cell morphology dynamics. The main advantages offered by using cell-substrate impedance and cell morphology as a readout are that both exogenously expressed and endogenous receptors can be assayed without the need for engineering the cell with promiscuous G proteins and reporters or labeling the cells with dyes. In addition, since the readout is noninvasive, multiple stimulations with the same ligand or different ligands can be performed to assess events such as desensitization and receptor cross-talk. Finally, another major aspect of using cell-substrate impedance and cell morphology as a readout is that potentially all GPCRs, regardless of the signaling pathways, can be functionally monitored.
Peptides were synthesized by the solid phase peptide synthesis (SPPS) method, cleaved from the resin, and purified by RP-HPLC unless stated otherwise. The peptide's identity was verified by mass spectrometry. Final purity of peptide was >90% as measured by RP-HPLC. Peptides were diluted in Water (DDW—high purity) containing 0.1% BSA. In some cases peptides were dissolved in Tris-HCl buffer (pH8.2). In other cases either the addition of 1% DMSO or a brief sonication was required. All plates were stored at −80 C until use.
Cells: CHOk1 cell-line (ATCC CCL-61). Cells were maintained and propagated in F-12 HAM nutrient mix (Gibco. Cat# 21765-029) supplemented with 10% HI-FBS (Biological Ind. Cat#04-121-1), 2.5 mL of 200 mm L-Glutamine in Saline Solution (Biological Ind. Cat#03-020-1), 5 mL of Penicillin-Streptomycin Solution 10000/mL Penicillin G & 10 mg/mL Streptomycin Sulfate (Biological Ind. Cat#03-031-1).
One day before the transfection 2×10^6 CHO-k1 cells were plated in T75 flask containing 10 mL of complete growth medium. On the transfection date, FUGENE6 transfection reagent was warmed to ambient temperature by 15 minutes incubation at room temperature and mixed prior to use by vortex.
The transfected DNA mix was prepared in another sterile microfuge tube; Total of 2 μg plasmid DNA mixture which is composed of […] of the target GPCR plasmid and of 2 μg of pIRES plasmid carrying eGFP reporter gene.
The plasmids DNA mixture was then added to the transfection reagent tube and incubated 35 min at RT with gently tapping once every 5 minutes to mix the contents. The DNA-FuGene complex was added drop wise to flask and spread by gentle swirling. […]

Row | competition for binding of Europium-H2 Relaxin (LGR7 (RXFP1) [1]) | Substance | effect on cell impedance (normalized cell index) (LGR7 (RXFP1) [2]) | dose response of normalized cell index (LGR7 (RXFP1) [2]) | affinity to LGR7 compared with other ligands (LGR7 (RXFP1) [2])
1 | no competition | GQKGQVGPPGAAVRRAYAAFSV-Amide (GQKGQVGPPGAAVRRAYAAFSV-NH2) [P59C13V-Amide] | – | – | –
2 | no competition | GQKGQVGPPGAAVRRAYAAFSVGRRAYAAFSV-OH [Peptide P74C13V] | stronger than the effect of H2 Relaxin | clear dose dependent activation | lower than that of H2 Relaxin
3 | – | H2 Relaxin: H2 Relaxin (ACS), positive control, known ligand of LGR7 (RXFP1) [reference compound] | capable of activating a cellular response | clear dose dependent activation | –
4 | no competition | GQKGQVGPPGAAVRRAYAAFSV [Peptide P59C13V] | – | moderate dose response for the high concentrations; also recorded: mild dose dependent activation | significantly lower than that of H2 Relaxin or P74C13V
5 | no competition | AYAAFSV-Amide (AYAAFSV-NH2) [Peptide P59-S-Amide] | – | moderate dose response for the high concentrations; also recorded: no dose response was demonstrated | –

Source: patent publication US8492329B2, “Bioactive peptides and methods of using same” (Compugen Ltd., priority 2007, dated 2013)
